Experimental data: article PMC3953565 (Methods in molecular biology (Clifton, N.J.), 2009)

Target: the molecule itself
Test: AUC

B1: recombinant human mitochondrial single-stranded DNA binding protein, mature form (natural protein, UniProt Q04837 17-148, looked up)
chain: ESETTTSLVLERSLNRVHLLGRVGQDPVLRQVEGKNPVTIFSLATNEMWRSGDSEVYQLGDVSQKTTWHRISVFRPGLRDVAYQYVKKGSRIYLEGKIDYGEYMDKNNVRRQATTIIADNIIFLSDQTKEKE
- stoichiometry N: 4
